According to patent publication US20220204603A1 (PHARMABCINE, published 2022):

Assays:
[1] = biological target: T1, Ang2 immobilized on a biosensor (Octet off-rate screening) (Homo sapiens (Human), UniProt O15123 19-496); experiment: dissociation rate screening of optimized clones (method as in Example 3, Octet; not restated)
T1 construct: also called Ang2 antigen; not shown: It is a His tag if hAng2-his (R&D 623-AN/CF) was used, or an Fc if hAng2-Fc (PharmAbcine) was used
T1 sequence: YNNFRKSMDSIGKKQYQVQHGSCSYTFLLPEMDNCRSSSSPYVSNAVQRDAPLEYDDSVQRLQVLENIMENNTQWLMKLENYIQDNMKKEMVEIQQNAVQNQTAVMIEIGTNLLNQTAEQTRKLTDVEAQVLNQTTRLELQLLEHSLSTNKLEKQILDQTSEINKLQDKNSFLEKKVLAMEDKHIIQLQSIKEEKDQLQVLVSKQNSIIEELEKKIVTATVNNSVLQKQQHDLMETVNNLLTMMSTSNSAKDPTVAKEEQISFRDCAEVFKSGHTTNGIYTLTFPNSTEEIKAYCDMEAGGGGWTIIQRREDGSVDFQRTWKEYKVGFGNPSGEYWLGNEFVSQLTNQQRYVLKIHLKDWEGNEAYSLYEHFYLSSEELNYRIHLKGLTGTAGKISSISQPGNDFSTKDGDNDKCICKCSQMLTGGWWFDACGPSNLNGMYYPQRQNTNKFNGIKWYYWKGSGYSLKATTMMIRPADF

[2] = biological target: T2, His-tagged human Ang1 (R&D systems, 923-AN/CF) (human, UniProt Q15389 20-498, limits assumed); experiment: phage ELISA, antigen coated at 1 µg/ml, anti-M13-HRP
T2 construct: Bought protein; also called hAng1-his; not shown: His tag
T2 sequence (looked up): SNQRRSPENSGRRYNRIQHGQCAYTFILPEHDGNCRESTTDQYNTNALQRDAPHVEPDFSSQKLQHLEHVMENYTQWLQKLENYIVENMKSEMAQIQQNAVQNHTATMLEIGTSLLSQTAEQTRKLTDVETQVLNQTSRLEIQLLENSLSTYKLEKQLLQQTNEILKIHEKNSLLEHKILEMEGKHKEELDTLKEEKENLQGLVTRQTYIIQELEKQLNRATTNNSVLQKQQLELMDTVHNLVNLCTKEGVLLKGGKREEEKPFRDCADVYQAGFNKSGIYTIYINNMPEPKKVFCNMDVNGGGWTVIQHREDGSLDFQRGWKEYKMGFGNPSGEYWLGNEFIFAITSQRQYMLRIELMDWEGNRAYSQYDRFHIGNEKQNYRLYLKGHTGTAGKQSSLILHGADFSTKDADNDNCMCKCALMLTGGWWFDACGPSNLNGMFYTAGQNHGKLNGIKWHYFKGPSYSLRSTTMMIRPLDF

[3] = biological target: Ang2 immobilized on a biosensor (Octet off-rate screening) (Homo sapiens (Human)) (UniProt O15123); experiment: dissociation rate screening of optimized clones (method as in Example 3, Octet; not restated)

B1: No. O12 optimized clone (screening of scFv phage library of No. 8 CDR3 variants) (scFv, V domains shown)
VH: QVQLVESGGGLVKPGGSLRLSCAASGFTFSSYSMNWVRQAPGKGLEWVSSISASDGATYYADSVRGRFTISRDNSRSTLYLQMNSLRAEDTAVYYCAKSLASYSGPMGGMDVWGQGTTVTVSS
VL: DIQMTQSPSSLSASVGDRVTITCRASRDISNYLAWYQQKPGKAPKSLIYGASNLQSGVSSQFSGSGSGTDFTLTINSLQPEDSATYYCQQYYSYPLTFGGGTKVDIKR
**Q.** For B1, which koff [1] is on record?
**A.** 1.7e-05 s⁻¹

B2: No. 3 monoclonal scFv phage (scFv)
chain: QMQLVQSGGGLVQPGRSLKLSCAASGFSFDDYAMHWVRQAPGKGLEWVATIKDDGSQTYYVDSVKGRFTISRDNAKSSLFLQMNSLRAEDTAVYYCTTEGLMNGLHFDMWGQGTMVTVSSLVLTQPPSVSGAPGQGVTISCTGSSSNIGAGYDVHWYQQFPGTAPKLLISGNNNRPSGLPDRFSGSKSGTSASLAITGLQAEDEADYYCQSYDSRLGVVFGGGTKLTVLG
**Q.** How did the OD [2] turn out when B2 was run?
**A.** 0.025 OD

B3: No. O4 optimized clone (screening of scFv phage library of No. 8 CDR3 variants) (scFv, part only; not given: scFv linker, part only)
scFv, part: QVQLVESGGGLVKPGGSLRLSCAASGFTFSSYSMNWVRQAPGKGLEWVSSISASDGATYYADSVRGRFTISRDNSRSTLYLQMNSLRAEDTAVYYCAKTLAGYSGPMGGMDVWGQGTTVTVSSDIQMTQSPSSLSASVGDRVTITCRASRDISNYLAWYQQKPGKAPKSLIYGASNLQSGVSSQFSGSGSGTDFTLTINSLQPEDSATYYCQQYYSYPLTFGGGTKVDIKR
**Q.** With B3 as the binder, how does the koff [3] read?
**A.** 9.01e-05 s⁻¹
